Laboratory results: the supplement of paper PMC10567573
± gives the standard deviation.

Experiment: protein stability index of a GFP-peptide fusion (GPS, HEK-293T) (PSI 1-6); higher = more stable
[1] = treatment: DMSO, c terminus: a fixed tail appended
[2] = treatment: MLN4924 1 uM, 8 h, c terminus: a fixed tail appended
[3] = treatment: DMSO, c terminus: native
[4] = treatment: MLN4924 1 uM, 8 h, c terminus: native
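Further: 24-mer peptide tiles fused after GFP, lentivirally expressed, FACS-sorted into six equal bins by GFP/DsRed ratio, decoded by Illumina sequencing, PSI is the read-weighted mean bin number.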

Row | Sequence | protein stability index [1] | protein stability index [2] | protein stability index [3] | protein stability index [4]
1 | TNLVLPSNGSMHNYCPQQTKITSA [EDNRA] | 3.75 ± 0.13 | 3.63 ± 0.14 |  | 
2 | LFAGFLPRIIKAAPSCAIMISTYE [SLC25A39] | 2.8 ± 0.31 | 3.21 ± 0.75 |  | 
3 | WAANAGVTASPPTDLIWKNQNSWG [LMNB1] | 2.46 ± 0.26 | 2.48 ± 0.5 |  | 
4 | DKHGCPAYVSPEILNTTGTYSGKA [TRIB1] | 4.44 ± 0.26 | 4.52 ± 0.12 |  | 
5 | LTLDLPTAPLYKDEKEQLIIPQVP [USP39] | 3.91 ± 0.33 | 3.92 ± 0.25 |  | 
6 | ILIALVGATPSYHWDLAELLPNQS [SLC22A15] | 2.85 ± 0.43 | 2.9 ± 0.75 |  | 
7 | ARTCAKQNINAPAPATTSSWEVVR [C22orf31] | 3.04 ± 0.4 | 3.22 ± 0.32 |  | 
8 | GQFVMKTRRTLKGHGNKVLCMDWC [GNB5] | 2.16 ± 0.32 | 2.32 ± 0.3 |  | 
9 | QLTKELPLSPAFFGEDGIFRHDRL [PBXIP1] | 3.07 ± 0.19 | 3.01 ± 0.33 |  | 
10 | LLTIGDANGEIQRHAEQQALRLEV [CARM1] | 3.53 ± 0.27 | 3.71 ± 0.11 |  | 
11 | RSGAGVALLNDHIYVVGGFDGTAH [KLHL12] | 2.78 ± 0.43 | 2.37 ± 0.46 |  | 
12 | GLEAPRDLEAKEVTPRTALLTWTE [TNXB] | 3.22 ± 0.4 | 4.95 ± 0.29 |  | 
13 | PLELLPGGPARPLGPGPAAPRLLK [CEBPD] | 4.33 ± 0.12 | 4.54 ± 0.14 |  | 
14 | RIVKIWDMTPVVGCSLATGFSPH [WDFY1] |  |  | 2.05 ± 0.28 | 2.34 ± 0.32
15 | KIKAIMALVAAILLLVIIILIVMK [VAMP4] | 2.47 ± 0.51 | 2.41 ± 0.8 |  | 
16 | GKIVGSLCAIAGVLTIALPVPVIV [KCNA1] | 3.19 ± 0.34 | 3.22 ± 0.44 |  | 
17 | WELVVLGKLKWNLAAVTPHDFIEH [CCND2] | 2.7 ± 0.71 | 2.62 ± 0.39 |  | 
18 | LGVVYRSLSFEDELVYADDYIMDE [ESRRG] | 2.46 ± 0.04 | 2.67 ± 0.33 |  | 
19 | RELKAKLSGVEEELQRTKQEVLSL [SASS6] | 4.47 ± 0.41 | 4.46 ± 0.22 |  | 
20 | QSSNLFRHQRRHNAEKLLNVVKV [ZNF24] |  |  | 1.84 ± 0.38 | 2.11 ± 0.26
21 | LIWVVGPVLAVVFIICIVIAILLY [PTPRD] | 2.35 ± 0.21 | 2.15 ± 0.29 |  | 
22 | LICAISHTHRAHTVVPLDDATQEY [TRIM39] | 2.59 ± 0.19 | 2.51 ± 0.38 |  | 

Row | Sequence | protein stability index [1] | protein stability index [2] | protein stability index [3] | protein stability index [4]
23 | NKTPGAPESSALQPPPQSSEGLVG [WAS] | 5.41 ± 0.35 | 5.3 ± 0.31 |  | 
24 | MADWARAQSPGAVEEILDRENKRM [BET1L] | 4.71 ± 0.35 | 4.75 ± 0.21 |  | 
25 | NCRLQSPYFSPSASFHHKLHHKRL [CBY2] | 2.32 ± 0.24 | 2.33 ± 0.16 |  | 
26 | HVPLQRLSLLVHNVSVMHKSLDNM [FBXO33] | 2.01 ± 0.22 | 2.3 ± 0.12 |  | 
27 | CVDRQEVAEITKQLPPVVPVSKPG [TCAP] | 4.7 ± 0.2 | 4.63 ± 0.15 |  | 
28 | RALKFRERDALEAVFRFWAGGEKG [DNAAF3] | 2.32 ± 0.07 | 2.59 ± 0.43 |  | 
29 | NRPIETYQVHDYLRSKLCSLYEND [PPP2R2B] | 2.97 ± 0.084 | 3.22 ± 0.16 |  | 
30 | KKLKKDDKKKELQELNELFKPVVA [ZC3H15] | 4.18 ± 0.48 | 4.15 ± 0.34 |  | 
31 | LARVPKLDLKRQYDRVAQLDQLLH [CHGB] | 2.15 ± 0.063 | 2.48 ± 0.26 |  | 
32 | QSPGQPVQGGSEAWGPGTLAAAPE [TEX19] | 5.08 ± 0.37 | 5.11 ± 0.24 |  | 
33 | EAAYLKILESSQTLLSVLKREAGN [SSNA1] | 2.39 ± 0.13 | 2 ± 0.26 |  | 
34 | ENHSMYCVQCKMPVCYQCLEEGKH [TRIM9] | 4.07 ± 0.2 | 4.36 ± 0.41 |  | 
35 | VGIFHLMQIAVPCAFLLLRLLVGL [TMEM175] | 2.81 ± 0.45 | 2.82 ± 0.47 |  | 
36 | FRPKDQTSVGMSFVAGGISGTVAA [SLC25A39] | 3 ± 0.11 | 2.96 ± 0.29 |  | 
37 | FYSNLILQHEERETRQKKLEVAME [STK38L] | 3.08 ± 0.2 | 3.08 ± 0.33 |  | 
38 | TISSWRNDRMSTRHDGYATNDGNH [RBMY1A1] | 3.99 ± 0.23 | 4.02 ± 0.086 |  | 
39 | MLPGRTDNAVKNHWNSTIKRKVDT [MYBL2] | 3.61 ± 0.17 | 4.09 ± 0.24 |  | 
40 | QVLIKHSADVNARDKNWQTPLHVA [ANKRD44] | 3.15 ± 0.34 | 3.01 ± 0.32 |  | 
41 | QHLKYKEHPEALSCLLLQLRREKP [INTS3] | 2.68 ± 0.16 | 3 ± 0.32 |  | 
42 | AASPGEAPAASEGAAAPATPTPVA [SNAP91] | 5.38 ± 0.15 | 5.53 ± 0.25 |  | 
43 | EGYTWRVAQLEDRRSTTDLRGTQF [ZSWIM9] | 3.37 ± 0.55 | 3.28 ± 0.24 |  | 
44 | NYTNPLKVQTVIILGKVILWILHL [TMEM192] | 2.08 ± 0.19 | 2.15 ± 0.24 |  | 

Row | Sequence | protein stability index [1] | protein stability index [2] | protein stability index [3] | protein stability index [4]
45 | CVATTGDITVSVSTSFLPELSSVH [FBXO3] | 2.23 ± 0.27 | 2.14 ± 0.23 |  | 
46 | SSRSTVPTPAKRRSSALWSEMLDI [NET1] | 2.62 ± 0.25 | 2.96 ± 0.46 |  | 
47 | PQGLFRGGKSGELEQEEERLSKEW [CHGA] | 5.19 ± 0.39 | 5.42 ± 0.19 |  | 
48 | PETQLFWDKEPWFWHDTLTEQLWR [TLE6] | 2.7 ± 0.57 | 2.27 ± 0.36 |  | 
49 | ECKHPSVFQHGDNSFRLLFDVVVI [MCOLN1] | 2.9 ± 0.48 | 3.02 ± 0.71 |  | 
50 | GKTDDTLALLNLACMMTITFLPYT [TMEM175] | 3.21 ± 0.33 | 3.08 ± 0.16 |  | 
51 | RVAAAAGSGPSPPGSPGHDRERQP [PI4K2A] | 5.31 ± 0.5 | 5.42 ± 0.27 |  | 
52 | ELVSVEDLLKFEKKFQSEKAAGSV [FIS1] | 3.58 ± 0.3 | 4.07 ± 0.35 |  | 
53 | TCQKFLIQYNRRQLLILLQNCTDE [POP5] | 2.73 ± 0.31 | 2.36 ± 0.21 |  | 
54 | DGNGGQFREVYVGKETMCTVDGLH [TRIM9] | 3.94 ± 0.37 | 4.11 ± 0.28 |  | 
55 | LSTHNWTYWQCGQYLGVGPGAHGR [RSAD1] | 2.31 ± 0.21 | 1.99 ± 0.27 |  | 
56 | PRETLCTELVLSDCMLSEEGATLL [LRRC45] | 3.65 ± 0.2 | 3.83 ± 0.11 |  | 
57 | GDTLRTFSLVLVLDLSKPNDLWPT [DYNC2LI1] | 2.89 ± 0.37 | 2.82 ± 0.32 |  | 
58 | PCWKITLFVIVPVLGPLVALIICY [MOG] | 2.87 ± 0.98 | 2.88 ± 1.2 |  | 
59 | QRITKQLEKWMQKNVEENLYSSSL [GLT8D2] | 2.89 ± 0.28 | 3.03 ± 0.21 |  | 
60 | GVSALCAICGDRATGKHYGASSCD [HNF4A] | 3.6 ± 0.2 | 3.75 ± 0.45 |  | 
61 | YSHLGGIDYKTTTILLDGQRVKLK [RAB40A] | 3.12 ± 0.29 | 3.25 ± 0.23 |  | 
62 | IKRAEDYGPVEVISHWHPNITINI [CLPTM1] | 3.11 ± 0.39 | 2.68 ± 0.14 |  | 
63 | RNPDQRKESLCISITVSKVDKDQP [FBXO34] | 3.6 ± 0.41 | 3.88 ± 0.24 |  | 
64 | VMKLEISPHRKRSDDSDEDEPCAI [DLC1] | 5.21 ± 0.52 | 4.93 ± 0.28 |  | 
65 | ERCLSCILAQQPDRLRDEELAELE [TRADD] | 4.41 ± 0.39 | 4.19 ± 0.51 |  | 
66 | MASQSQGIQQLLQAEKRAAEKVSE [ATP6V1G1] | 4.93 ± 0.36 | 5.385 ± 0.052 |  | 

Row | Sequence | protein stability index [1] | protein stability index [2] | protein stability index [3] | protein stability index [4]
67 | GRHAQTVETLLRHGAHINLQSLKF [RIPK4] | 2.34 ± 0.14 | 2.65 ± 0.45 |  | 
68 | LVAGIGFYQHLLLYIQSHYQLELQ [SMG5] | 2.99 ± 0.5 | 3.11 ± 0.43 |  | 
69 | PQAPPASRDEAALPELLLGALPVG [RETREG3] | 4.64 ± 0.087 | 4.67 ± 0.16 |  | 
70 | DCQAGLNFADEDEAQAFRALVQEK [WAS] | 5.17 ± 0.22 | 5.08 ± 0.16 |  | 
71 | TDGDHNVYPRPPEPREFSSRNFGV [ZC2HC1C] | 3.89 ± 0.23 | 3.97 ± 0.18 |  | 
72 | MEALDLQPGLSFLNLGSGTGYLSS [PCMTD2] | 3.4 ± 0.36 | 3.45 ± 0.4 |  | 
73 | EEERDEEEDKRRKGEEVTPISAIR [EPB41L3] | 5.59 ± 0.28 | 5.66 ± 0.21 |  | 
74 | ASGQGPMCNVKAPLGSPSPRPRRA [ADAMTS4] | 4.88 ± 0.29 | 5.13 ± 0.15 |  | 
75 | KTLRVWDLKDDGNMMKVLRGHQNW [WSB1] | 2.66 ± 0.4 | 2.4 ± 0.42 |  | 
76 | SCEEVAASSASLEPMWSGSTMRRM [EMID1] | 4.09 ± 0.3 | 4.35 ± 0.18 |  | 
77 | KNNLSFIETSALDSTNVEEAFKNI [RAB11B] | 4.33 ± 0.2 | 4.33 ± 0.3 |  | 
78 | GKDHEILRRRIENGAKELWFFLQS [FUT8] | 2.08 ± 0.65 | 2.36 ± 0.27 |  | 
79 | MPATPSLKVVHELPACTLCAGPLE [TRIM15] | 3.95 ± 0.28 | 4.03 ± 0.2 |  | 
80 | VPGHRSERAIRTQPKQLIVDDLKG [SPRY1] | 4.25 ± 0.34 | 4.13 ± 0.47 |  | 
81 | ETYMSADDLRINLWHLAITDRSFN [PPP2R2C] | 2.23 ± 0.32 | 2.36 ± 0.29 |  | 
82 | RQVRDKTLKRGYFQKSLVLISKLP [DENND6A] | 2.27 ± 0.15 | 2.36 ± 0.41 |  | 
83 | QRINTYVFVGNQLIPQPLDSEEDE [PCMTD1] | 4.32 ± 0.25 | 4.37 ± 0.15 |  | 
84 | TCVYIAEIAPQHRRGLLVSLNELM [SLC2A12] | 2.73 ± 0.6 | 2.46 ± 0.56 |  | 
85 | MLQRAIAYQHSGHLESKDINQEEL [C10orf62] | 3.96 ± 0.19 | 4.14 ± 0.24 |  | 
86 | QNPPVIKSSGRFLWIKFFAAGELE [NETO1] | 2.57 ± 0.53 | 2.11 ± 0.19 |  | 
87 | TENRYCVQLSQIQGLIGSVEEQLA [KRT17] | 3.1 ± 0.51 | 3.24 ± 0.22 |  | 
88 | NLVARHPLFSEDVVLKLFLSFSGS [SNX8] | 2.7 ± 0.58 | 2.33 ± 0.2 |  | 
